Experimental data as given in patent publication US20110158985A1 (published 2011).
Changes are numbered by the printed parent chain. Names and notes keep the numbering of the source. Values joined by “and” are separate entries in the source; they are usually repeats but may differ in a detail not shown here. Equal values may be shown once. Read-outs that look alike come from different tables or passages of the source.

Tests used:
[1] = target: T1, F protein of RSV (Long strain) (RSV (Long strain), UniProt P12568 26-574); experiment: cell-based or functional assay
RSV F protein (purified) = RSV F protein (purified) (respiratory syncytial virus); experiment: SPR (BIAcore), F protein immobilised
[2] = target: T2, recombinant C-terminally truncated RSV (A2 strain) F protein (RSV (A2 strain), UniProt P03420 26-524); experiment: SPR (BIAcore), Fab over immobilised F
T2 construct: extracellular domain; also called truncated F protein; extracellular domain of the F protein from RSV A2

[3] = target: T1, F protein of RSV (Long strain); experiment: cell-based or functional assay; remark: listed apart in the source
[4] = target: T1, F protein of RSV (Long strain); experiment: cell-based or functional assay; remark: listed apart in the source
[5] = target: T2, recombinant C-terminally truncated RSV …; experiment: SPR (BIAcore), Fab over immobilised F; remark: listed apart in the source

B1: 1X-493L1FR Fab (Fab, V domains shown)
VH: QVTLRESGPALVKPTQTLTLTCTFSGFSLSTSGMSVGWIRQPPGKALEWLADIWWDDKKDYNPSLKSRLTISKDTSKNQVVLKVTNMDPADTATYYCARSMITNWYFDVWGQGTTVTVSS
VL: DIQMTQSPSTLSASVGDRVTITCSASSSVGYMHWYQQKPGKAPKLLIYDTSKLASGVPSRFSGSGSGTEFTLTISSLQPDDFATYYCFQGSGYPFTFGGGTKVEIK
notes: also called IX-493L1FR
- Microneutralization IC50, Fab [1]: 26.3 µg/ml and 526 nM
- koff (RSV F protein (purified)): 0.00065 s⁻¹
- kon (RSV F protein (purified)): 185000 M⁻¹ s⁻¹
- Kd [2]: 3.52 nM
- koff [2]: 0.000651 s⁻¹
- kon [2]: 185000 M⁻¹ s⁻¹

B2: A17d4(1) Fab (Fab, V domains shown)
VH: B1 VH with S32A, D57G, D60S, S67D, S100D, T103F, W105F
VL: B1 VL with S24L, A25P, S28R, S51M, K52Y, L53Q, A54S
- Mean IC50 (Control) [3]: 0.0171 µg/mL
- Mean IC50 (Curve) [3]: 0.0179 µg/mL
- Microneutralization IC50, Fab [4]: 0.0179 µg/ml and 0.36 nM
- Kd [5]: 0.111 nM
- koff [5]: 5.9e-05 s⁻¹
- kon [5]: 531000 M⁻¹ s⁻¹

B3: S52Y Fab (Fab, name in Kabat numbering, V domains shown)
VH: B1 VH
VL: B1 VL with S51Y
- Microneutralization IC50, Fab [1]: 5.99 µg/ml and 120 nM
- Kd [2]: 0.74 nM
- koff [2]: 0.000125 s⁻¹
- kon [2]: 170000 M⁻¹ s⁻¹

B4: G93W Fab (Fab, name in Kabat numbering, V domains shown)
VH: B1 VH
VL: B1 VL with G92W
- Microneutralization IC50, Fab [1]: 6.57 µg/ml and 131 nM
- Kd [2]: 0.93 nM
- koff [2]: 0.00014 s⁻¹
- kon [2]: 150000 M⁻¹ s⁻¹

B5: S52F Fab (Fab, name in Kabat numbering, V domains shown)
VH: B1 VH
VL: B1 VL with S51F
- Microneutralization IC50, Fab [1]: 7.27 µg/ml and 1.45 µM
- Kd [2]: 0.85 nM
- koff [2]: 0.000175 s⁻¹
- kon [2]: 206000 M⁻¹ s⁻¹

B6: G93Y Fab (Fab, name in Kabat numbering, V domains shown)
VH: B1 VH
VL: B1 VL with G92Y
- Microneutralization IC50, Fab [1]: 6.26 µg/ml and 125 nM
- Kd [2]: 0.94 nM
- koff [2]: 0.000153 s⁻¹
- kon [2]: 162000 M⁻¹ s⁻¹

B7: palivizumab Fab (recombinant) (Fab, V domains shown)
VH: B1 VH with Q112A
VL: B1 VL with S24K, A25C, S26Q, S27L, V103L
- Microneutralization IC50, Fab [1]: 27.5 µg/ml and 549 nM
- Microneutralization IC50, Fab [4]: 27.5 µg/ml and 549 nM
- Kd [5]: 5.25 nM
- Kd [2]: 5.25 nM
